Reference: PMC10445738

What was measured:
Assay in all cases: AP-MS
[1] = target: HOIL-1-interacting protein (HOIP), endogenous (UniProt Q96EP0); conditions: FLAG-tagged OTULIN bait expressed in HEK293 cells; endogenous prey; parent: est. 27; read off a plot
SLC9A3R2, endogenous = SLC9A3R2, endogenous (UniProt Q15599); conditions: FLAG-tagged OTULIN bait expressed in HEK293 cells; endogenous prey; read off a plot
[2] = target: scribble (SCRIB), endogenous (UniProt Q14160); conditions: FLAG-tagged OTULIN bait expressed in HEK293 cells; endogenous prey; parent: est. 110; read off a plot
SNX27, endogenous = SNX27, endogenous (UniProt Q96L92); conditions: FLAG-tagged OTULIN bait expressed in HEK293 cells; endogenous prey; parent: est. 62; read off a plot

Sequence of UniProt Q15599 (Q15599 whole entry): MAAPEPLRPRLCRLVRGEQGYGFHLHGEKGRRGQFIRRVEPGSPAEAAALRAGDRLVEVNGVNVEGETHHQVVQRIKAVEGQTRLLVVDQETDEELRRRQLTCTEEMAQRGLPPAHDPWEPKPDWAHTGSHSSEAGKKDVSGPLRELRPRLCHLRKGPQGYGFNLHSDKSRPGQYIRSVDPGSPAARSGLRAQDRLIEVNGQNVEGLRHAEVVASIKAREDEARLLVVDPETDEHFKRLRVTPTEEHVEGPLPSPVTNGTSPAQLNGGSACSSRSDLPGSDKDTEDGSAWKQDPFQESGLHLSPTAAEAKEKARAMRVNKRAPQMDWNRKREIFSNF
Sequence of UniProt Q14160 (Q14160 whole entry): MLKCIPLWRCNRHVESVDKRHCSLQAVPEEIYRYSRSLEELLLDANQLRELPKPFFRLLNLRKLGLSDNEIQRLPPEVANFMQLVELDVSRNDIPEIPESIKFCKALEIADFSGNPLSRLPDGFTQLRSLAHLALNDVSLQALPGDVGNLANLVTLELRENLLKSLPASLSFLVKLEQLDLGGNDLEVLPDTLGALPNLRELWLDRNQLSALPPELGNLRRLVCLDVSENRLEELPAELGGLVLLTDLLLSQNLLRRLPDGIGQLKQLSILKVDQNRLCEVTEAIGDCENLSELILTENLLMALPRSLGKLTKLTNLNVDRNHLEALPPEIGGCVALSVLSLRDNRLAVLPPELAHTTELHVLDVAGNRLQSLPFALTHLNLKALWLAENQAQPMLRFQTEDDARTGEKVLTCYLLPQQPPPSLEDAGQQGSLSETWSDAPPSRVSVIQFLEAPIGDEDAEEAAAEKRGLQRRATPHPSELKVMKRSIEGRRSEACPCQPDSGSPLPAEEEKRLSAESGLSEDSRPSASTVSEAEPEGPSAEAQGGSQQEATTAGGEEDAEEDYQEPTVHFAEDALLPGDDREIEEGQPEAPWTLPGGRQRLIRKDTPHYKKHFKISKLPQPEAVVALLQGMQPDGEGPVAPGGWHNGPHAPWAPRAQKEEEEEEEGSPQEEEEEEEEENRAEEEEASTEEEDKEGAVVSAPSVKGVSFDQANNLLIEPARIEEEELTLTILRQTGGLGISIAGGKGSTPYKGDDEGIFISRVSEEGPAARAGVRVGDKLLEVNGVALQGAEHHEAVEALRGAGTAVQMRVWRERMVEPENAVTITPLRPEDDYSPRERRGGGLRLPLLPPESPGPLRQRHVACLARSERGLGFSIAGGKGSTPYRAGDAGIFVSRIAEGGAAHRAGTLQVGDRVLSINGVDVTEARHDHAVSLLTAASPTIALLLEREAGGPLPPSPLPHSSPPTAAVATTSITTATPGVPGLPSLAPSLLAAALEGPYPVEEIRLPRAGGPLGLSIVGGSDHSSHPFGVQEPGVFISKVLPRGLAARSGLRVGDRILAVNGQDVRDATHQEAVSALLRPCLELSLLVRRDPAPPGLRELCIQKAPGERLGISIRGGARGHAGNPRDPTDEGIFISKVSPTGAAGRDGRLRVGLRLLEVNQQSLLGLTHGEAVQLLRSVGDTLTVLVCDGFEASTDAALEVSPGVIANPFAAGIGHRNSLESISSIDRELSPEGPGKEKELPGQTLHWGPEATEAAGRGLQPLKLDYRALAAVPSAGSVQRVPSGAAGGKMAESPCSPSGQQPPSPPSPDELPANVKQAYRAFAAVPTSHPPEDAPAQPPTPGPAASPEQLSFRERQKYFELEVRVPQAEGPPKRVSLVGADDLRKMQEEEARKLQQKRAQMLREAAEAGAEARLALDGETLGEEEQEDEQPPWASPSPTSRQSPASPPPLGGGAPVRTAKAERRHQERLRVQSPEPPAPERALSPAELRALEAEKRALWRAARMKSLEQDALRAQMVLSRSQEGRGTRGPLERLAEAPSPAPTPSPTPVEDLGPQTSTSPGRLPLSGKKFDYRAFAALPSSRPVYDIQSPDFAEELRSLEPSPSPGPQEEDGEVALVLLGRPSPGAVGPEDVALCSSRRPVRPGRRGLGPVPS
Sequence of UniProt Q96EP0 (Q96EP0 whole entry): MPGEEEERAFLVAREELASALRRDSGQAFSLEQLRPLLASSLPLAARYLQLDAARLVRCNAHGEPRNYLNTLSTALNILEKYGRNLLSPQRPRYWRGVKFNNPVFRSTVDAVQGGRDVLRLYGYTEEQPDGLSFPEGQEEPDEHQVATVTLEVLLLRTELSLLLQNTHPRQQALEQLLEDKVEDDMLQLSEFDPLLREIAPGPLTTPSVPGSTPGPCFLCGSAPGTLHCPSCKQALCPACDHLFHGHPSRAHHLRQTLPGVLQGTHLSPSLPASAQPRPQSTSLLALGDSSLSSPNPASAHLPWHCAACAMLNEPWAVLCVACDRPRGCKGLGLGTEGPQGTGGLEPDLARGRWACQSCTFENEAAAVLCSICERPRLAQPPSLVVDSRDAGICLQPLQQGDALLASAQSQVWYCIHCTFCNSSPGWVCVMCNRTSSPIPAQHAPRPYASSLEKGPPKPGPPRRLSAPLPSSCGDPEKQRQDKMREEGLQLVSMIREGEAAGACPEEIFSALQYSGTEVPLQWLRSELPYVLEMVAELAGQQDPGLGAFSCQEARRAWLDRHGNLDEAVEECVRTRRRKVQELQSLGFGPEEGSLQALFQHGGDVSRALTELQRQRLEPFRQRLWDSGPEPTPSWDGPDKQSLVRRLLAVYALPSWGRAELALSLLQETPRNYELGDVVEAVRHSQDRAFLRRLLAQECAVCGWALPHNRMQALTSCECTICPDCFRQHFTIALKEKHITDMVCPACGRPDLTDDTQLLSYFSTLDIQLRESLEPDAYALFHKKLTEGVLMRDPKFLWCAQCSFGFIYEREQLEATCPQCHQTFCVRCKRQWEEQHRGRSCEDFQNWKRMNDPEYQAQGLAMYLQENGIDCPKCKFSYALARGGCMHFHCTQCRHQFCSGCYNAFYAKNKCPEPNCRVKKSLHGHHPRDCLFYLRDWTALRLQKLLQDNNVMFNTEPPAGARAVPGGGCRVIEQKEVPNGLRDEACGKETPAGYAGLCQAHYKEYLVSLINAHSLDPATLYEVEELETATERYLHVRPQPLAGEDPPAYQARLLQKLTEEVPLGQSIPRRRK

“FLAG-tagged full-length OTULIN (WT) (from UniProt Q96BN8) ΔPBM: C-terminal ETSL to AAAA” gave a response (spectral counts) [1] of 23, a response (spectral counts) (SLC9A3R2, endogenous) of 0 and a response (spectral counts) [2] of 0. It also gave a response (spectral counts) (SNX27, endogenous) of 0.
